From US20240376166A1 (BOSTON MEDICAL CENTER, published 2024)

Target: the molecule itself
Test: native gel of lysates from non-stressed cells (self-association; cells also hold endogenous NPM); FIG. 5B

B1: flag-tagged NPM normal mimic (T86A-S88A-T95A-T234E-S242E) (other)
chain: MEDSMDMDMSPLRPQNYLFGCELKADKDYHFKVDNDENEHQLSLRTVSLGAGAKDELHIVEAEAMNYEGSPIKVTLATLKMSVQPAVALGGFEIAPPVVLRLKCGSGPVHISGQHLVAVEEDAESEDEEEEDVKLLSISGKRSAPGGGSKVPQKKVKLAADEDDDDDDEEDDDEDDDDDDFDDEEAEEKAPVKKSIRDTPAKNAQKSNQNGKDSKPSSTPRSKGQESFKKQEKEPKTPKGPESVEDIKAKMQASIEKGGSLPKVEAKFINYVKNCFRMTDQEAIQDLWQWRKSL
notes: Lentiviral expression in primary PTEC; also called normal mimic NPM; NrNPM; not shown: amino-terminal flag tag
- binding result: binds
